Source: patent US12060433B2, “CD73 inhibitor and A2A/A2B adenosine receptor inhibitor combination therapy” (Incyte Corporation, priority 2020, dated 2024)

What was measured:
[1] = biological target: T1, cell surface CD73 on MDA-MB-231 cells (Homo sapiens, UniProt P21589); assay: Binding to cell surface CD73 by flow cytometry (GMFI), MDA-MB-231 cells; format: cell-based; details: high levels of surface CD73
T1 construct: endogenous in cells; host or cells: MDA-MB-231
T1 sequence (P21589 27-549): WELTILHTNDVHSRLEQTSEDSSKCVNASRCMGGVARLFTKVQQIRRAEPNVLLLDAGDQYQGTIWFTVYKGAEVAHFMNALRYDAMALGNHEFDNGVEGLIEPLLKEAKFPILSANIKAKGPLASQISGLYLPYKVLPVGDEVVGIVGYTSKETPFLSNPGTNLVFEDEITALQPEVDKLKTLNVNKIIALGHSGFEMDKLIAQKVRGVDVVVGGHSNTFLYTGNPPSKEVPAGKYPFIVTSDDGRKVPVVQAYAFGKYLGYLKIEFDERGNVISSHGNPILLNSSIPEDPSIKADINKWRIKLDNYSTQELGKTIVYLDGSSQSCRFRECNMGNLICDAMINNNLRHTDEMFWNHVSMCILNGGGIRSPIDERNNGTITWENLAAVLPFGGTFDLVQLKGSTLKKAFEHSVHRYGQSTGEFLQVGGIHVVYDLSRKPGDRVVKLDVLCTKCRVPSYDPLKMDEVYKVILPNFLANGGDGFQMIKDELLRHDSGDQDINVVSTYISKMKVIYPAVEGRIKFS
Protocol: (§1) To test the binding of humanized and non-humanized CL25 clones to cell surface CD73, MDA-MB-231 or A375 cells were washed and added to 96-well plates at 5×10^4 cells/well. The cells were stained with the indicated concentration of antibodies for 30 minutes on ice (FIG. 2A and FIG. 2B). Next, the cells were washed and stained using goat anti-mouse secondary conjugated to phycoerythrin (PE) for 30 minutes on ice. The cells were then washed and analyzed by flow cytometry. Geometric mean fluorescence intensity (GMFI) of CD73 staining was graphed (FIG. 2A and FIG. 2B).
Cells were stained with the indicated concentration of antibodies for 1 hour on ice. Cells were then washed and stained goat anti-mouse secondary conjugated to PE for 30 minute on ice. Cells were then washed and analyzed by flow cytometry. The GMFI of CD73 staining is graphed (FIG. 13).

[2] = biological target: T2, cellular CD73 on A375 cells (Homo sapiens, UniProt P21589); assay: Cellular CD73 inhibition (AMP-Glo), A375 cells; format: cell-based; details: 100 μM AMP, 3 hours
T2 construct: endogenous in cells; host or cells: A375
T2 sequence (P21589 27-549): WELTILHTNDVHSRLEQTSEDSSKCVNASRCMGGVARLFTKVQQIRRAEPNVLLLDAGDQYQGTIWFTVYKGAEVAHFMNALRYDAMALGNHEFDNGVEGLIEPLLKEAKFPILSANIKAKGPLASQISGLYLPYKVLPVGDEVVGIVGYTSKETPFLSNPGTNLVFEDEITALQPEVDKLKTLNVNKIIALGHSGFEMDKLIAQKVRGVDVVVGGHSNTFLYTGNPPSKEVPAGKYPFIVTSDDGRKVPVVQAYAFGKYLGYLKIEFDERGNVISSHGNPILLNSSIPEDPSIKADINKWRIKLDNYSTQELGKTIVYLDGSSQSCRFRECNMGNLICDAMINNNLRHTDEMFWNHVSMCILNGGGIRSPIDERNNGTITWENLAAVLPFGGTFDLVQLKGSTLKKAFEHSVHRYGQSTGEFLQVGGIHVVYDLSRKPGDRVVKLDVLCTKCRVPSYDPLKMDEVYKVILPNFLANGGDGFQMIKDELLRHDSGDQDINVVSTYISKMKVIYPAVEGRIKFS
Protocol: To measure ability of anti-CD73 antibody to inhibit CD73 activity on cells, A375 and MDA-MB-231 cells were washed with serum free RPMI media (ThermoFisher) and plated in 96-well plates at a concentration of 8×10^4 cells/well for A375 or 1×10^4 cells/well for MDA-MB-231. The cells were incubated with the indicated concentration of antibodies or APCP at 37° C. 5% C02 for 30 minutes (FIG. 3A, FIG. 3B, and FIG. 3C). Next, adenosine monophosphate (AMP) was added to a final concentration of 100 μM and cells were incubated an additional 3 hours at 37° C. 5% CO2. Plates were centrifuged for 1-2 minutes at 300 g and 25 μL of supernatant was transferred into a new 96-well plates. AMP-Glo Assay was used according to the manufacturer's instructions (Promega). Relative luminescence unit (RLU) is directly correlated with the AMP concentration in this assay. Results are depicted in FIG. 3A, FIG. 3B, and FIG. 3C. The ability of 3-[…] to inhibit CD73 activity on cells was evaluated as described in Example 3, above. Results are depicted in FIG. 8A and FIG. 8B.

[3] = biological target: T3, CD73 on the cell surface of MDA-MB-231 cells (Homo sapiens, UniProt P21589); assay: CD73 cell surface levels after 24 hour antibody treatment; format: cell-based; details: 10 μg/mL antibody
T3 construct: endogenous in cells; host or cells: MDA-MB-231
T3 sequence (P21589 27-549): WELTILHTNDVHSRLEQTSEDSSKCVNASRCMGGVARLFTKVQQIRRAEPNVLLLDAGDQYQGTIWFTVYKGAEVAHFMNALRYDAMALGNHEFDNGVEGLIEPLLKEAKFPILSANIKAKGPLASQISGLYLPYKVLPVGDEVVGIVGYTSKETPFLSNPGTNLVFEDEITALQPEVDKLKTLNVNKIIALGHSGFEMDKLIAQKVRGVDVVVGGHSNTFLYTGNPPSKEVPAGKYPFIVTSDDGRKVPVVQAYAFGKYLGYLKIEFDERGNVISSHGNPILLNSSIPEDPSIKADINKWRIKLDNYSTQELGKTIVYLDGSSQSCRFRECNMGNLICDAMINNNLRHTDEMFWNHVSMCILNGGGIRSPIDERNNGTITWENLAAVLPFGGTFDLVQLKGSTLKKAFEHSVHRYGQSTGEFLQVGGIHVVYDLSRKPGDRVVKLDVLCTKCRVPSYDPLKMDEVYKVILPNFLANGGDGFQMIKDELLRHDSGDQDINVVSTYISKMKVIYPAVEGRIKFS
Protocol: Indicated antibodies were added at a final concentration of 10 μg/mL and plates were incubated at 37° C. 5% CO2 for 24 hours. Cells were recovered using Versene and transferred to new 96-well plates. Cells were washed and stained for 30 minutes on ice with 10 μg/mL of non-competing antibody directly conjugated to Dy650. Cells were washed and analyzed by flow cytometry. CD73 cell surface receptor density was determined by Antibody Binding Capacity (ABC) using Quantum Simply Cellular beads.

[4] = biological target: T4, human CD73 (SEQ ID NO: 70) (Homo sapiens, UniProt P21589); assay: SPR (Biacore 8K) binding affinity and kinetics to human CD73
T4 construct: purchased BPS Bioscience
T4 sequence (P21589 27-549): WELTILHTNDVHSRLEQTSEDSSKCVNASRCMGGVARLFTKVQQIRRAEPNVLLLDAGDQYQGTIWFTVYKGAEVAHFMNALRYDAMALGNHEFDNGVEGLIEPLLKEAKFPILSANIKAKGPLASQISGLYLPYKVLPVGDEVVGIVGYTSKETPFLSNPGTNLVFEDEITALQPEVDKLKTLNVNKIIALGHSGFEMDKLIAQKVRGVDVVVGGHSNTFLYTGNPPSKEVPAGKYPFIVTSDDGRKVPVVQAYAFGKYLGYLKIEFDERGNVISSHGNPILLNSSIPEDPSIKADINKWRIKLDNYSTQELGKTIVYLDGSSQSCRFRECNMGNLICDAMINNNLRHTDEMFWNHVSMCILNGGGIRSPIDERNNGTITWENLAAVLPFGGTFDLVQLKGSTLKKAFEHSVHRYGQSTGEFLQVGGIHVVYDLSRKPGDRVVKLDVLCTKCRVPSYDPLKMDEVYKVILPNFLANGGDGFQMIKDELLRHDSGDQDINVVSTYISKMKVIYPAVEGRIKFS
Protocol: (§2) The SPR running buffer (10 mM HEPES, 150 mM NaCl, 3 mM EDTA and 0.05% v/v Surfactant P20, pH 7.4) was prepared from 10×HBS-EP Buffer (GE Healthcare). Anti-human Fc antibodies (GE Healthcare) were immobilized via amine coupling on all sixteen flow cells of an S series sensor chip CM5 (GE Healthcare). The immobilization levels were ˜9000 RU for all flow cells. The desired capturing level of anti-CD73 antibody was achieved by flowing appropriate concentration of anti-CD73 antibody through the active flow cell of each channel. The non-cleavable ADP analogue APCP (adenosine-5′-(α,β-methylene) diphosphate) with the presence of Zn^2+ can be used to shift the CD73 conformational equilibrium from open towards closed. Therefore, recombinant CD73 was incubated with SPR running buffer in the presence of 100 μM APCP and 10 μM ZnCl2 (closed SPR running buffer) to study the binding of anti-CD73 antibody to the CD73 in the closed conformation. To achieve this, the ABA injection feature in Biacore 8K was used. For open conformation, the ABA injection sequence started with 60 seconds injection of running buffer. Then, CD73 3-fold serial dilution concentration series prepared from CD73 stock (BPS Bioscience) and running buffer were injected for 180 seconds immediately followed by running buffer for 240 seconds. For closed conformation, the normal SPR running buffer was replaced by closed SPR running buffer. Surface was regenerated with 30 seconds injection of 3 M MgCl2. […] Binding affinities and kinetic association and dissociation rate constants to human, cynomolgus, and mouse CD73 in either open or closed conformations are shown in Table 8 below. The results in Table 8 ensure cynomolgus pharmacokinetic data will reflect human pharmacokinetic data.
(§3) Binding affinities and kinetic association and dissociation rate constants to human, cynomolgus, and mouse CD73 in either open or closed conformations are shown in Table 9 below.

[5] = system: cynomolgus CD73 (SEQ ID NO: 72); assay: SPR (Biacore 8K) binding affinity and kinetics to cynomolgus CD73
Sequence of cynomolgus CD73 (SEQ ID NO: 72) (as listed by the source): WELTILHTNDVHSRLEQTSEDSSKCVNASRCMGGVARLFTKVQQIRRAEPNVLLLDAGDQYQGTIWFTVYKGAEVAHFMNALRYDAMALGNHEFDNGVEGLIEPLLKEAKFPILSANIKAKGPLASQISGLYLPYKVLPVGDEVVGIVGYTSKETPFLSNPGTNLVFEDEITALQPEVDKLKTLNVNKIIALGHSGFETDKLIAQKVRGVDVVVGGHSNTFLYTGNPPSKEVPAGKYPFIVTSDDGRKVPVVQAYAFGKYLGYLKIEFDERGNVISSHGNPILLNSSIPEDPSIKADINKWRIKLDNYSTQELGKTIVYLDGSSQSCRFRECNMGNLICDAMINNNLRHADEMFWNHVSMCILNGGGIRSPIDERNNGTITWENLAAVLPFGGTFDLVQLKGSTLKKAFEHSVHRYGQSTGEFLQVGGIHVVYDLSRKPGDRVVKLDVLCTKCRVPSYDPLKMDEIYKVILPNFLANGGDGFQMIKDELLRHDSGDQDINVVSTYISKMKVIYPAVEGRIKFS
Protocol: as §2, §3

[6] = biological target: T5, cell surface CD73 on A375 cells (Homo sapiens, UniProt P21589); assay: Binding to cell surface CD73 by flow cytometry (GMFI), A375 cells; format: cell-based; details: moderate levels of surface CD73
T5 construct: endogenous in cells; host or cells: A375
T5 sequence (P21589 27-549): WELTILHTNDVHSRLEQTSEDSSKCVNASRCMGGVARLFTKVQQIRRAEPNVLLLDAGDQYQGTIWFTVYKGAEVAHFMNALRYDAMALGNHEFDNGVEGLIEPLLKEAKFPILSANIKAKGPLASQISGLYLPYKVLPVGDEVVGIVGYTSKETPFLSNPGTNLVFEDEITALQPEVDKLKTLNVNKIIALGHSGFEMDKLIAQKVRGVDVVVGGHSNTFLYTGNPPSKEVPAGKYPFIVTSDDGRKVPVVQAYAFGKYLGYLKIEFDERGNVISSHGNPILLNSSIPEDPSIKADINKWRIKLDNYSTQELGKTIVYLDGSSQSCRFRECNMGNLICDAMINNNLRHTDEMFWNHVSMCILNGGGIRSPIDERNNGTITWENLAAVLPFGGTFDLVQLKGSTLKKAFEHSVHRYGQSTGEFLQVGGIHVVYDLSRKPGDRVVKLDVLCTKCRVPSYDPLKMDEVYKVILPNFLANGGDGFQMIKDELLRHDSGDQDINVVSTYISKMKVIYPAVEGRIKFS
Protocol: as §1

[7] = human CD73, closed conformation (100 μM APCP, 10 μM ZnCl2)
[8] = human CD73, open conformation, 25° C.
[9] = cynomolgus CD73, closed conformation

B1: CL25: chimeric anti-human CD73 monoclonal antibody, murine VH SEQ ID NO:26 and VL SEQ ID NO:27 with human IgG1 Fc (antibody, V domains shown)
VH: QVQLQQSGAELARPGASVKLSCRASGYTFTSYGLSWVKQRTGQGLEWIGEIYPGSGNTYYNEKFKGKATLTADKSSSTAYMELRSLTSEDSAVYFCARYDYLGSSYGFDYWGQGTTLTVSS
VL: DIVMTQSHKFMSTSVGDRVSITCKASQDVSTAVAWYQQKPGQSPKLLIYSASYRYNGVPDRFTGSGSGTDFTFTISSVQAEDLAVYYCQQHYNTPYTFGGGTKLEIK
modifications: human IgG1 Fc constant regions without entry
- cell binding (GMFI) [1]: high potency binding
- cellular CD73 inhibition [2]: good potency
- level of CD73 on the cell surface [3]: decreased the levels of cell surface CD73
- ka [4, 7]: 903000 M⁻¹ s⁻¹
- kd [4, 7]: 0.000344 s⁻¹
- ka [4, 8]: >1e+06 M⁻¹ s⁻¹
- kd [4, 8]: 0.000394 s⁻¹
- ka [5, 9]: 936000 M⁻¹ s⁻¹
- kd [5, 9]: 0.000495 s⁻¹
- kd ([5]; cynomolgus CD73, open conformation): 0.000658 s⁻¹
- cell binding (GMFI) [6]: high potency binding
